In the nanobody polyreactivity screen of Harvey et al. (2022):

Assay: yeast display, Sf9 membrane polyspecificity reagent, FACS + sequencing; frameworks hold sequencing errors
Summary of the method: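 After 36–48 hours of galactose induction, yeast (Saccharomyces cerevisiae BJ5465) displaying a synthetic nanobody library were stained at 4 °C for 1 hour with 10% biotinylated, detergent-solubilized Sf9 membrane reagent. Streptavidin microbeads enriched the stained cells before FACS sorting into low and high (top ~1%) gates on anti-HA and streptavidin fluorescence. Each clone's polyreactivity label reflects its gate of origin.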

Sequence | polyreactivity (PSR sort gate)
QVQLVESGGGLVQAGGSLRLSCAASGFTFFPYAMGWYRQAPGKERELVATITRGGSTNYADSVKGRFTISRDNAKNSVYLQMNSLKPEDTAVYYCNIDKKTPTFDYWGQGTQVTVSS | low polyreactivity
QVQLVETGGGLVQAGGSLRLSCAASGGIFVANAMGWYRQAPGKERELVAAISKRGGSTTYADSVKGRFTISRDNAKHTVYLQMNRLKPEDTAVYYCAKVVSPVYLYPSGYDYWGQGTQVTVSS | low polyreactivity
QVQLVESGGGLVQAGGSLRLSCAASGGIFSYYAMGWYRQAPGKEREFVAAIDWGGGSTYYADSVKGRFTISRDNAKKTVYLQMNSLKPEDTAVYYCAAEIYPIGWDDYDYWGQGTQVTVSS | low polyreactivity
QVQHVESGGGLVQAGGSLRLSCAASGLIFTKNAMGWCRQARGKEWELVAAISRGGGTPYYADSVKGRFTISRDHAKNTVYLQMNSLKPEDTAVYYCAAESYLQYPGAGDSWGQGTQVTVSS | high polyreactivity
QVQLVESGGGLVQAGGSLRLSCAASGFIFRNYVMGWYRQAPGKERELVAAINWSTGTTNYADSVKGGFTISRDNAKNTVYLQMNSLKPEDTAVYYCNARYRLRYIYSLRYDYWGQGTQVTVSS | high polyreactivity
QVQLVESGGGLVLAGGSLRLSCAASGRTFVQYAMGWYRQAPGTERELVAAISDRGGNTYYADSVKGRFTISRDNAKNTVYLQMNSLKPDDTAVYYCAAKIALDNDYWGQGTQVTVSS | high polyreactivity
QVQLVESGGGLVQAGGSLRLSCAASGSTFKYNTMGWYRQAPGKERELVARISWSGTRTYYADSVKGRFTISRDNAKNTVYLQMNSLKPEDTAVYYCAKVSYFWSPYGYDSWGQGTQVTVSS | high polyreactivity
QVQLVESGGGLVQAGGSLRLSCAASGRIFVVYAMGWYRQAPGKERELVASITWRGGSTYYADSVKGRFTISRDNAKNTVDLQMNSLKPEDTAVYYCAAELDVYVSIGSRFHFDYCGQGTQVTVSS | low polyreactivity
QVQLVESGGGLVQAGGSLRLSCAASGSTFGSYAMGWYRPAPGKERELVAAISYSGGSTYYADSVKGRFTISRDNAKNTVYLQMNSLKPEDTAVYYCATVRKYRAMVYWGQGTQVTVSS | high polyreactivity
QVQLVESGGGLVQAGGSLRLSCAASGFIFISYMGCDRQAPGKERELVAAISWSGTRTYYADSVKGRFTISRDNAKNTVYLQMNSLKPEDTAVYYCAARKYYDRYFYWGQGTQVTVSS | low polyreactivity
QVQLVESGGGLVQAGGSLRLSCAASGSTFGVYAMGWYRQAPGKERELVARITSGGSTYYADSVKGRFTITRDNAKKTVYLQRNSLKPEDTAVYYCAAVYRRTRSWKFDYWGQGTQVTVAS | high polyreactivity
QVQLVESGGGLVQAGGSLRLSCAASGRTFQYNAMGWYRLAPGKERELVAAISSGGSTYYADSVKGRFSISRDNAKNTVYLQMNSLKPEDTAVYYCATYLAEYGYWGQGTQVTVSS | high polyreactivity
QVQLVESGGGLVQAGGSLRLSCAASGSIFSIYAMGWYRQAPGKERELVATIRVSGDRTYYADSVKGRFTISRDNAKNTVYLQMNSLKPEDTAVYYCAADFRGFYSWNFYYWGQGTQVTVSS | high polyreactivity
QVQLVESGLGLVQAGGSLRLSCAASGSIFNIYAMGWYRQAPGKERELVAAITTGTRTYADSVKGLFTISRDNAKNTVYLLMNSLKPEDTAVDYCAAVSPTYPNTFYRYNYWGQGTQVTVSS | low polyreactivity
KVQLVESGAGFVQAGGSLRLSCAASGFIFPVYTMGWYRQAPGKERELVAAITQIGGSTHYADSVKGRFTISRDNAKNTVYLQMNSLKPEYTAVYYCNAVPHPYDWGQGTQVTLSS | low polyreactivity
QVQLVESGGGLVQAGGSLRLSCAASGLICTYYAMGWYRQAPGKEWEFVAGISKSTSSTYYADSVKGRFTISRDNAKNTVYLLMISLKPEDTAVYYCAAQGGRNRGYRYYWGQGTQVTLSS | high polyreactivity

Sequence | polyreactivity (PSR sort gate)
QVQLVESGGGLVQAGGSLRLSCAASGRIFASYAMGWYRQAPGKERELVAAINSNGGSKYYADSVKGRFTISRDNAKNTVYLQMNSLKPEDTAVYYCAAGARYKMGYWGQGTQVTVSS | high polyreactivity
QVQLVDSGGGLVQAGGSLRLSCAASGRTFYDNDMGWYRQAPGKERELVARIRRGGNTKYADSVKGRFTISRDNAKNTVYLQMNSLKPEDTAVYYCNRDYGSKIYDYWGQGSQVTVSS | low polyreactivity
QVQLQESGGGLVQAGGSQRLSCASSGYIFYFQYMGWYRQAPGKEREFVAAISDGANTNYADSVKGRFTISRDNAKNTEYLQMNSLKPEDTAVYYCNADQYYWYEYDYWGQGTQVTVSS | low polyreactivity
QVQLVESGGALVQAGGSLRLSCAASGFTLSAYAKGWYRQAPGKERELVAGISYTGGRTYYADSVKGRFTISRDNAKNTVYLQMNSLKPEDTAVYYCNKAWSGYYKYGYWGQGTQVTVSS | low polyreactivity
QVQLVESGGCLVQEGGSLRLSCAASGSTVTYYDMGWYRQAPGKERELVATIDSTTRTYYADSVKGRFTISRDNAKNTVYLQMNSLKPEDTAVYYCAADMTWGYFYYLFYRYDYWGKGTQVTVSS | low polyreactivity
QVQLVESGGGLVQAGGSLRLSCAASGSIFLYNTMGWYRQAPGKERELVAAITYSGGSTYYADSVKGRFTISRDYAKNTVYLQMNSLKPEDTAVDYCNARHYSAYYSWGQGTQVTVSS | high polyreactivity
QVQQVESGGGLVQAGGSLRLSCAASGTFGYYAMGWYRQAPGKERELVAGITWSGGSTYYADSVKGRFTISRDNAKNTVYLQMNSLKPEDTAVYYCATSSYTGYWGQGTQVTVSS | low polyreactivity
QVQLVESGGGLVQAGGSLRLSCASSGSKLGINVMGWYRQAPGKERELVAAISRRGGSTNYADSVKGRFTISRDNAKNTVYLQMNSLKPEDTAVYYCNALGHVQGYDYWGQGTQVTVSS | high polyreactivity
QVQLVESGGVLVQAGGSLRLSCAASGRIFYNYGMGWYIQAPGKERELVARITTGGRTNYADSVKGRFTISRDNAKNTVYLQMNSLKPEDTAVYYCNADGYHSRWYYYNYDYWGQGTQVTVSS | low polyreactivity
QVQLVESGGGLVQAGGSLRLSCAASGRIFATNAMGWYRQAPGKERELVATITRSAGRTYYADSVKGRFTISRDTAKNTVYLQMNSLKPEDTAVYYCAASYWDTEPGYREYDYWGQGTQVTVSS | low polyreactivity
HVQLQESGGGLVQAGGSLRQSCAASGYIFPYYSMGLYRQAPGKERGLVACIAAGTTTNYADSVKGRFTISRDNAKNTVYLQMNSLKPEDAAVYYCAALNAFNTGHWYWGQGTQVTVSS | low polyreactivity
QVQLVESGGGLVQAGGSLRLSCAASGFIFYYYAMGWYSQAPGKERELVARISRGGSTYYADSVKGRFTISRDNAKNTVYLQMNSLKPEDTAVYYCAKVSIARIKTRYNYWGQGTQVTVSS | high polyreactivity
QVQLVESGGGLVQAGGSLRLSCAASGRIFYGYTMGWYRQAPGKERELVAAITRSTGSTYYADSVKGRFTISRDNAKNTVYLQMNSLKPEDTAVYYCAKYGYTNTPKSPMDYWGQGTQVTVSS | low polyreactivity
QVQLVESGGGLDQAGGSLRLSCAASGIIFVSNAMGWYRQAPGKERELVATITWTGGSTYYADSVKGRFTISRDNAKNTVYLQMNSLKPEDTAVYYCAADLSIRYDHEYGYWGQGTQVTVSS | low polyreactivity
QVQLVESGGGLVQAGGSLRLSCAASGSTLDIYAMGWYRQAPGKERELVAAITSGGSTNYADSVKGRFTISRDNAKNTVYLQMNSLKPEDTAVYYCNARYFRGYDYWGQGTQVTVSS | high polyreactivity
QVQLVESGGGLVQAGGSLRLSCAASGCIFEIYAMGWYRQAPGKERELVAAITDSGGSTYYADSVKARFTISRDNANNTVYLQMNSLKPEDTAVYYCAAVGNSYETLLFYYWGQGTQVTVSS | low polyreactivity
